Source: the DeepSol protein solubility set

Assay: soluble on expression in E. coli; label from the status in PepcDB or PDB records

Sequence	soluble on expression in E. coli
MAHHHHHHMWEETYVRACANLGVQPRNEVLAAVGGTAQLCGNTFANFENRLTDEELAALCETCRQISLVAVVRLPYNNITCRGATALAKAMKEGFSTLQYLDLSYNSINEEGANAIAAAATNYEMLSTLLLNGNPIGGGSGPCLKTLLESENTQLVTLDLEQTDQGLKSLVHIARGLVHNTTLTTLNLGRPLMTNPMDVSYVVEHLSLALKENRTLRFLGLSHFNMADCDLALLLSTLRDSAVTTLSLKGNKLSQASGEPLAQLLAHRPDFLSLDVTANRLRDVGALAIAAVIANHPGLRELQIGFNTIGGVGISALAQSLAANASITTLKLWGNDLTDESVRDLYAIRGRFESMEVTDFSFYVVDGCPMVARE	not soluble
MAHHHHHHMYDDVEVRRREEARQHTAASLIQRRWREHAERRSLEQDAAPLRGTGGNGVLLVASDAFGDVVGRRGGETDEALRPLKSDGFDELAQTVQTPEEKRRACVEEYRALLAKRKALLENNLVYQQLLSRHYAEQRRRNGEDEVAQLTTPDAEAAYWALVRQVAEERQRVAARSTALKKDLELQRQRYEPIMEEAATQERNFQQYIQELAASVRFMRSNRPIPTEAIEKYIELEAVQRSAIHASRVRYLQLKNRLLRLRRVAKGGAALSSSAPTATAAATGQDGEESNAANHHMFLIDFEQLKVENTSLNEKIEERSEEVLKLRNKVTNTIHIATHVREKLDCVRAENAELRQHVASTDEELGGARDQLAKSKRRRDAHLRANTRMKERMPLVGSRDLLMDYEKRKAVIYNYRTRLVQLTDRHKELTDSIKKEESTIVSLQHELSHYPK	not soluble
MAHHHHHHMYKLVLIRHGESTWNKENRFTGWVDVDLTEQGNREARQAGQLLKEAGYTFDIAYTSVLKRAIRTLWHVQDQMDLMYVPVVHSWRLNERHYGALSGLNKAETAAKYGDEQVLVWRRSYDTPPPALEPGDERAPYADPRYAKVPREQLPLTECLKDTVARVLPLWNESIAPAVKAGKQVLIAAHGNSLRALIKYLDGISDADIVGLNIPNGVPLVYELDESLTPIRHYYLGDQEAIAKAQAAVAQQGKSAA	soluble
MAHHHHHHMYNILQFVLKAYSIQNEEPSCDVENVKDLLNDQLCYVLYNITNYSSKYQWILILWAPEKNSILIDDIHENKEKKNNFIHIVDKEIYKYNNASKKINKLLYYSFKQNFLDIIFNNYDIPLFEINNFVMLEKCIHDCNNKYYNYTNCPTLLNREKTKPKNDSFDIYNQYNLQKYYLLNIQLRSINNIIILNESSLCHDMKRLLEEPNICLNLFYIDVHNYKIISTHLNIDNIEQVHSIIKENKIFYVIYKVLDTYTFFYICNEICTNTKQKFLYSFFKPYLLEYLKKIKNIPIFLSIELSKTKHLIRFINADLKKNKNKNSN	soluble
MAHHHHHHMYPKNELQVLNILYIIIYSFFVDEEIDNIKDETQEIQAYNYTSLMIPSDVSSENNSDTKHFSVVTISFFILYSENIKQVLNLQESIDIQKIKEKKEKKKKQEVFKDIMCSDIKYEKKIKRKKKKIFENKRSSKKNKNNIRDFINLEKDIIITKTLMYNKKKKLDDIYKYTSKKEKTINNLNKNMIKEAAHMQELLIENFKKTEDLIKVRRGGGKIKKKEKTQRIYIHIYIHIYIHI	not soluble
MAHHHHHHMYTRDVSDRISGISAADLAQRLVEVSARNTARDGALSPSVCQRPLPHCVSALLWDAKCAGAAPPRTALLRGDVVDMTSSVSDATLSCVALSDDVRFRFARSRHRRLTGILSSTAAPLPPRMCRVDVTHFYWMDECAPGLTYDDQSVLSTVLQKRIVQWAVSAFARNPLLRNISLQALEAVFPALLAFSPREREELLKHAAELLGQGTLIWYGQAMIKQFHESAASLALSLLTSSEERCSAALLFALATAQEVMGARRDDAAQALRFLLEVYGVRGVALSPALTTAALLVSRATVPLCTRRCLGAGSRQHHLLQPYLFPLSCAHVETLPWIPHNTHTSSPEHLRELVRRAREAAAAVLATAAPCTATTAQKRHAHEDDVNAFFSANHALEIHRDTLVTHASGDVPSSLPALKAADSGAAARSRLLEAAPKWWEQEAKASNSDTAREETELKLHVKAAAAELREPHGSDHALLAVIHRTRKRQRNREQPTAQTVEAALEGAAIRLKRRAFLQLVDIFALNAHTEDRDGKARQYLEQHHVAEAQIRDFTTLLSSTRKT	not soluble
MAHHHHHHSLNDYTQQLQGKKDYLKTLFAGLDVPEWEVYESPDKHYRMRAEFRIWHEGGEMFYAMFEKGQKASGASMIRCDRFEAASEAVNRLMPELIAAAAQSPELKKRWYAVEFLSTLSGEMLVTMIYHKRLDAEWMQAAQALQQQLDISVIGRSRGQKIVLKQDYVTETLKVGNRDFRYRQIEGSFTQPNAAVCQKMLEWACRTAEGLGSDLLELYCGNGNFTLPLSRYFRQVLATEISKTSVSAAQWNIEANRIGNIKIARLSAEEFTEAYTGKREFKRLKDGGIALTDYAFSTIFVDPPRAGIDEETLKLVSQFDNIIYISCNPETLRANLDTLAETHAVERAALFDQFPFTHHIESGVLLKKKILEG	soluble
MAHHHHHHSLVDVRQSIHSEHAKTLDTQALRREFLIENIFVADEYTMVYSHIDRIIVGGIMPVSHPVEIGGEVGKQLGVSRLLDRRELGVINIGGAGAIIVDGQRHDIGHRDALYIGKGAKELVFVSNEASRPAKFYYNCAPAHTAYPTKKVSPADVAPVTLGDNLTSNRRTINKYFVPDVLETCQLSMGLTELAPGNLWNTMPCHTHERRMEVYLYFNMEEDSCVFHMMGQPQETRHIVMRNEQAVISPSWSIHSGVGTKAYTFIWGMVGENQVFDDMDHVAVQDLREG	soluble
MAHIIRRVSIKDVENFISMLAKIYDESPYMFYTPGEYDPSVTSASKQLEEYITSPHKVIFVAESDEQLVGFAFVNTTPFQRIKHVAKIDLGVKKLYQHRGIGQALLDAIMAWCLNNQIHRIEANVPLNNQPALELFKSADFQIEGVLKDKLFIDGKYYDDYMMAKILN	soluble
MAHLKKRNRLKKNEDFQKVFKHGTSVANRQFVLYTLDQPENDELRVGLSVSKKIGNAVMRNRIKRLIRQAFLEEKERLKEKDYIIIARKPASQLTYEETKKSLQHLFRKSSLYKKSSSK	soluble
MAHQYPSWIFINEKTFITREQLNSLLKTYNIFYENQKNLHILYGETEDGKLIVEGMLDIFWGVKRPIQLKIQDEKPFSSFTSMKSSDVFSSKGMTRWGEFDDLYRISELDRTQIPMSEKRNSQEDYLPYHSNTLKPHAKDEPDSPVLYRTMSEAALVRKRMKPLMMDRKERQKNRASINGHFYNHEIENSPQDFALHIIFATGEQRRLKKTDIPLLQRLLQGPSEKNARIFLMDKDAEEISSDVAQYINFHFSLLESILQRLNEEEKREIQRIVTKFNKEKAIILKCLQNKLVIKTETTV	not soluble
MAIDHYENFPVASLLLPRRLRGAVTDIYRFARAADDIADEGAAEDAERLRQLAAFRAELHRIGAEPGTLAVPASADLAPIFTPLAATIARHQLPITPFFDLLSAFEQDISVKRYESHDDLLDYCRRSANPVGRLMLHLYGAVDEANLRDADAICTGLQLVNFWQDVRIDWRKQRVYLPEEDLRRHGVSRDDLAACRLTPQWRELMAFEVQRTRALLHSGAALPRRLPGRIGLELRLVVQGGLRILQRIEDAGYDVFMNRPELGAKDWAVMLWRAFT	not soluble
MAIDSKPHDDLQLFKTNLHPCGYWPDRWASDLVMDPNDPRLGAIYPQTLAWGFRRSGNLLYRPHCEHCNACVPVRVNVNAFVPNRSQRRCLARNATLVTRIVPAERNAEQLSLYRRYLHQRHPDGGMDGHGAIEFDQFLIGPWGYGRFMEIREPATNGTPGQLLAVAVTDLTHQALSAVYTFYEPNAAARGLGTLAILHQIHWAQREQRPYLYLGYWIKDHFKMDYKRRFQKLEIYDGYRWRPFSTTYPTTHTLLEHHHHHH	soluble
MAIDYSKWDKIELSDDSDVEVHPNVDKKSFIKWKQQSIHEQRFKRNQDIKNLETQVDMYSHLNKRVDRILSNLPESSLTDLPAVTKFLNANFDKMEKSKGENVDPEIATYNEMVEDLFEQLAKDLDKEGKDSKSPSLIRDAILKHRAKIDSVTVEAKKKLDELYKEKNAHISSEDIHTGFDSSFMNKQKGGAKPLEATPSEALSSAAESNILNKLAKSSVPQTFIDFKDDPMKLAKETEEFGKISINEYSKSQKFLLEHLPIISEQQKDALMMKAFEYQLHGDDKMTLQVIHQSELMAYIKEIYDMKKIPYLNPMELSNVINMFFEKVIFNKDKPMGKESFLRSVQEKFLHIQKRSKILQQEEMDESNAEGVETIQLKSLDDSTELEVNLPDFNSKDPEEMKKVKVFKTLIPEKMQEAIMTKNLDNINKVFEDIPIEEAEKLLEVFNDIDIIGIKAILENEKDFQSLKDQYEQDHEDATMENLSLNDRDGGGDNHEEVKHTADTVD	soluble
MAIIKCDVCAYPFSNKQDPRCSKCHPKITPPSKPKNPYALPMKQQLILGPIVGIVVGLMFAACEGNRPGRATTACMLRARAQAIAAGNPNYTHAKEVSPTRAMLVFRKDGRTRNTNFFCDSLVTDREA	not soluble
MAILRLEPQQLYSVADLENMPCKSTKELPPIDEIVGQERAQKAVEFAMSIKEKGYNIYAIGQNGLGKRTMILRYLNRHQHDADALFDWCYVANFEDTRTPKVLKLPCGIGNKLRVDIEALMGKLLNALPLAFDNEMYFSRADRLKNQLANKQQNELDRISREAKEHGISLTITSQGDYQFVAMNGDELHTEESFDALSKKEQEQFSDSIDALEVSLRSMVRELTEWEDTYSDKIKKLNDEVTLDVITHFIKKLKVDYSEYSEIKTYLTELQKDIVENADIFLDQSGEQGEIAAASLDKKLPRRYKVNVLVSRNNSDFPIVVEENPNYHSLFGSIETATFKGTVFTDFSLIRAGSLHKANGGVLLMDAQKVLEQPYVWDGLKRALRARQLSFTSLEKEVTLTGAVSLDPEPIPLDIKIILFGDYRTYQLLQHYDPEFSELFRVTADFEDEMKRTPESELHYARFISSVVHDNNMLHCDRKAIARIIEYSSRLSGDQSKLSLHSANIANLLRESNYVARQANSNMIRIGHVEEAMKNQEMRVSRLRDSVMETFLNGTT	not soluble
MAIPKIASYPLPVSLPTNKVDWRIDASRAVLLIHDMQEYFVHYFDSQAEPIPSLIKHIQQLKAHAKQAGIPVVYTAQPANQDPAERALLSDFWGPGLSEETAIIAPLAPESGDVQLTKWRYSAFKKSPLLDWLRETGRDQLIITGVYAHIGILSTALDAFMFDIQPFVIGDGVADFSLSDHEFSLRYISGRTGAVKSTQQACLEIAAQHSKLTGLSLRTMQHDVAAALNLSVDEVDVQENLLFLGLDSIRAIQLLEKWKAQGADISFAQLMEHVTLQQWWQTIQANLHQPCSA	not soluble
MAIPSRSPLASRALSFLGALSLLTFAATPVLAESTPTAAPPQFAVESPKAASSLLLSVAHAGKRLVAVGDRGHILLSDDDGKTWTQAKVPTRQLLTSVFFVNERKGWAVGHDAQILVSDDAGSTWARQFEDLGREAPLLDIWFADEQHGLAVGAYGALLETRDGGQHWEDVSERLDNEDQFHLNAIAAVKDNGLLVVGEAGSLFRSKDWGATWEKLEGPYEGSLFGAIGTADAGGVLVYGLRGHLFRSADFGDSWEEIPLKAASGDLEFGLSDGALLADGRIVVVGHGGSVLESTDGGRSFSVFNRPDRLSLAGVSATGDGHLILVGQGGVHLAAANGAALEQQQLEHHHHHH	soluble
MAIQLSKGQRIDLTKTNPGLTKAVIGLGWDTNKYSGGHDFDLDASAFLVDAHDNCVNDLDFVFYNNLEHPSGGVIHTGDNRTGEGDGDDEQIIVDFSKIPAHIEKIGITVTIHDAEARSQNFGQVSNAFVRVVDEETQNELLRFDLGEDFSIETAVVVCELYRHGGEWKFNAIGSGFSGGLAALCRNYGLQV	not soluble
